Patent US20250177445A1 (A2 BIOTHERAPEUTICS, published 2025)

Biological target: HLA-E*01:03 expressed on HLA-E knockout HeLa cells by mRNA transfection (human, UniProt P13747 22-358)
Experiment: cell-based or functional assay

B1: HLA-E activator receptor (third generation CAR: HLA-E scFv, CD8 hinge, CD28 transmembrane domain, CD28/41BB/CD3 intracellular domain) (receptor)
chain: QVQLRESGPSLVKPSQTLSLTCTVSGFSLTSYGVHWVRQPPGKGLEWLGVIWTGGTTNYNTALMSRLSITKDNSKSQVFLKMNSLQTDDTAIYYCARDGDSYNREAWFAYWGQGTLVTVSAGGGGSGGGGSGGGGSGGQIVLTQSPAVISASPGEKVILTCSASSSVSYMHWFQQKPGTSPKLWIYGTSNLASGVPARFSGGGSGTSYSLTISRMEAEDAATYYCQQRSRYPFTFGSGTKLEIKTTTPAPRPPTPAPTIASQPLSLRPEACRPAAGGAVHTRGLDFACDFWVLVVVGGVLACYSLLVTVAFIIFWVRSKRSRLLHSDYMNMTPRRPGPTRKHYQPYAPPRDFAAYRSKRGRKKLLYIFKQPFMRPVQTTQEEDGCSCRFPEEEEGGCELRVKFSRSADAPAYKQGQNQLYNELNLGRREEYDVLDKRRGRDPEMGGKPRRKNPQEGLYNELQKDKMAEAYSEIGMKGERRRGKGHDGLYQGLSTATKDTYDALHMQALPPR
- EC50 of specific killing of HeLa cells by primary T cells: ~10000 HLA-E molecules
